US20240352111A1 (Regeneron, published 2024)
Residue numbers refer to the chain shown, from its start. Blank lines part the entries; values can stand above or below the binder they belong to.

Assays:
[1] = biological target: T1, hArtemin-MMH (human); experiment: SPR Biacore T200, hArtemin-MMH captured by anti-myc mAb, mAb injected, 25 C
T1 construct: also called hARTN.mmh; hARTN (A108-G220).mmh
T1 chain: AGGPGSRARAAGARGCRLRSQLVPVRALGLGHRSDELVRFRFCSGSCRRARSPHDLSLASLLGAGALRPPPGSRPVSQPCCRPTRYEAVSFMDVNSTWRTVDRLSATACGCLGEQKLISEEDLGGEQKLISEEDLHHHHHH
Procedure: (§1) The equilibrium dissociation constant (KD) for Artemin binding to each of Artemin monoclonal antibodies (mAbs) H4H33331P, H4H33335P, H4H33336P, and H4H33349P was determined using a real-time surface plasmon resonance Biacore T200 biosensor. All binding studies were performed in 10 mM HEPES, 150 mM NaCl, 3 mM EDTA, and 0.05% v/v Surfactant Tween-20, pH 7.4 (HBS-ET) running buffer at 25° C. The Biacore CM4 sensor chip surface was first derivatized by amine coupling with anti-myc mAb to capture hArtemin-MMH, MfArtemin-MMH, or mArtemin-MMH. Different concentrations of Artemin mAbs (60-2.2 nM, 3-fold serial dilution) prepared in […] running buffer were injected over the Artemin-captured surfaces for 3 min at a flow rate of 50 μL/min and their dissociation in HBS-ET running buffer was monitored for 5 minutes. At the end of each cycle, the Artemin-captured surfaces were regenerated using a 6 sec injection of 20 mM phosphoric acid.
(§2) The association rate (kₐ) and dissociation rate (kd) were determined by fitting the real-time binding sensorgrams to a 1:1 binding model with mass transport limitation using Scrubber 2.0c curve-fitting software. Binding dissociation equilibrium constant (KD) and dissociative half-life (t½) were calculated from the kinetic rates as: KD (M)=kd/kₐ, and t_{1/2} (min)=[In2/(60*kd)].

[2] = biological target: T2, mArtemin-MMH (mouse); experiment: SPR Biacore T200, mArtemin-MMH captured by anti-myc mAb, mAb injected, 25 C
T2 construct: also called msArtemin-MMH; msARTN.mmh
T2 chain: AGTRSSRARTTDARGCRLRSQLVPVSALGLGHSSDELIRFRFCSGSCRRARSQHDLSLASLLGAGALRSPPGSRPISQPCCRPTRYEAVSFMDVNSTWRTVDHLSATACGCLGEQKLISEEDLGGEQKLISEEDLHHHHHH
Procedure: as §1, §2

[3] = biological target: T3, MfArtemin-MMH (cynomolgous monkey (Macaca fascicularis)); experiment: SPR Biacore T200, MfArtemin-MMH captured by anti-myc mAb, mAb injected, 25 C
T3 construct: also called mfARTN.mmh; mfARTN (A108-G22).mmh
T3 chain: T1 chain with A8P, V76I
Procedure: as §1, §2

[4] = biological target: T2, mArtemin-MMH; experiment: blocking ELISA, antibody blocks 150 pM msARTN.mmh binding to plate-coated hGFRa3.hFc; * below lower limit of assay (3.75E-11 M)
Procedure: (§3) Experiments were carried out using the following procedures. Plates were coated with hGFRa3.hFc at 2 μg/ml in PBS on a 96-well microtiter plate at 4° C. overnight for all three assays. […] In other microtiter plates, a constant amount of either 75 pM hARTN.mmh, 400 pM mfARTN.mmh, or 150 pM msARTN.mmh were separately bound with anti-ARTN antibodies and an irrelevant IgG4 antibody control at a serial dilution series from 0.0017 nM to 100 nM in PBS+0.5% BSA. After a one-hour incubation, the mixture solutions were transferred to microtiter plates coated with hGFRa3.hFc. After one hour of incubation at RT, the wells were washed with PBST, and plate-bound ARTN was detected with an anti-penta-His antibody conjugated with horseradish peroxidase (HRP) (Qiagen). The plates were then developed using TMB substrate solution (BD Biosciences, #555214) according to manufacturer's recommendation and absorbance at 450 nm was measured on a Victor X5 plate reader.
(§4) Binding data were analyzed using a sigmoidal dose-response model within Prism™ software (GraphPad). […] If the calculated IC50 value was below the LLOA, less than LLOA was reported. Percent blocking at 100 nM antibody was calculated based on the background-corrected binding signal observed at the highest antibody concentration tested using the formula listed below and reported for all tested antibodies: […]

[5] = biological target: T3, MfArtemin-MMH; experiment: blocking ELISA, antibody blocks 400 pM mfARTN.mmh binding to plate-coated hGFRa3.hFc; * below lower limit of assay (1.00E-10 M)
Procedure: as §3, §4

60 nM Artemin mAb Bound (RU) [1]: 7 RU
Kd [1]: 2.91 nM
koff [1]: 0.000366 s⁻¹
kon [1]: 126000 M⁻¹ s⁻¹
t½ [1]: 0.533 h
60 nM Artemin mAb Bound (RU) [2]: 7 RU
Kd [2]: 0.346 nM
koff [2]: 5.4e-05 s⁻¹
kon [2]: 156000 M⁻¹ s⁻¹
t½ [2]: 3.57 h
60 nM Artemin mAb Bound (RU) [3]: 5 RU
Kd [3]: 1.51 nM
koff [3]: 0.000199 s⁻¹
kon [3]: 131000 M⁻¹ s⁻¹
t½ [3]: 0.967 h
IC50 [4]: < 0.0375 nM
B1: H4H33331P (antibody, human IgG4 S228P, kappa, V domains shown)
VH: EVQLVESGGDLVQPGGSLKLSCAASGFTFSGSAMHWVRQASGKGLEWVGRIRNKVHRYATEYGASVKGRFTISRDDSKNTAYLQMNSLKIEDTAVYYCVVVVPGSIEAFDIWGQGTMVTVSS
VL: DIQMTQSPSSLSASVGDRVTITCRASQSISTYLNWYQQKPGKAPNLLIYAASTLESGVPSRFSGSGSGTDFTLTISSLQPEDFEIYYCQQSYNIPWTFGQGTKVEIKR
notes: Fully human antibody (human variable and constant domains) from a VELOCIMMUNE mouse; also called Artemin mAb; anti-ARTN antibody

60 nM Artemin mAb Bound (RU) [1]: 15 RU
Kd [1]: 0.15 nM
koff [1]: 3.75e-05 s⁻¹
kon [1]: 249000 M⁻¹ s⁻¹
t½ [1]: 5.13 h
60 nM Artemin mAb Bound (RU) [2]: 3 RU
60 nM Artemin mAb Bound (RU) [3]: 11 RU
Kd [3]: 0.111 nM
koff [3]: 2.3e-05 s⁻¹
kon [3]: 207000 M⁻¹ s⁻¹
t½ [3]: 8.37 h
IC50 [5]: 0.075 nM
B2: H4H33336P (antibody, human IgG4 S228P, kappa, V domains shown)
VH: QVQLVESGGGVVQPGRSLRLSCVASGFILSHYGMHWVRQAPGKGLEWVAVIWFDGTNKYYADSVKGRFTVSRDNSKNTLYMQMNSLRAEDTAVYYCARDPPPARRGNYNGMDVWGQGTTVTVSS
VL: DIQMTQSPSSLSASVGDRVTITCRASQDIRNDLGWYQQKPGKAPKRLIFGASSLQSGVPLRFSGSGSGTEFTLTINNLQPEDFATFYCLQDNSYPWTFGQGTKVEIKR
notes: Fully human antibody; also called Artemin mAb; anti-ARTN antibody

60 nM Artemin mAb Bound (RU) [1]: 18 RU
Kd [1]: 0.119 nM
koff [1]: 5.9e-05 s⁻¹
kon [1]: 497000 M⁻¹ s⁻¹
t½ [1]: 3.27 h
60 nM Artemin mAb Bound (RU) [2]: 20 RU
Kd [2]: 0.113 nM
koff [2]: 5.91e-05 s⁻¹
kon [2]: 521000 M⁻¹ s⁻¹
t½ [2]: 3.25 h
60 nM Artemin mAb Bound (RU) [3]: 14 RU
Kd [3]: 0.21 nM
koff [3]: 9.6e-05 s⁻¹
kon [3]: 457000 M⁻¹ s⁻¹
t½ [3]: 2 h
IC50 [4]: 0.00765 nM
IC50 [5]: 0.0302 nM
B3: H4H33349P (antibody, human IgG4 S228P, kappa, V domains shown)
VH: QVQLVESGGGVVQPGRSLRLSCEASGFTFSDYDLHWVRQAPGKGLEWVAFISNDGSNEYYPKSVKGRFSISRDNSKNTLYLQMNSLRAEDTAVYHCTKERDYYYDSSGSLDYWGQGTLVTVSS
VL: DIQMTQSPSSLSASVGDRVTITCRASQTINNYLNWYQQKPGKAPKLLIYTTSGLQSGVPSRFSGRGSGTDFTLAISSLQPEDFATYYCQQSYHSPFTFGPGTKVDIKR
notes: as for B2
